The source of these data is publication PMC12583987, “Impact of Hanks Kinase‐Dependent Phosphorylation of CodY on the Physiology and Virulence in Bacillus cereus” (MicrobiologyOpen, 2025).

Holding throughout (assay): SEC; Superdex 75 column on an Akta Purifier, PBS 1x, 0.5 mL/min; 75 uL (about 150 ug) of each purified protein loaded individually; column calibrated with a low molecular weight kit; oligomer size from the elution volume
For series [1], the target named is CodY-S215A (Bacillus cereus ATCC 14579), N-terminal (His)6-tagged (Bacillus cereus ATCC 14579) (UniProt Q819X8).
The target in series [2] is CodY-S215D (Bacillus cereus ATCC 14579), N-terminal (His)6-tagged (Bacillus cereus ATCC 14579) (UniProt Q819X8).
Series [3] concerns the molecule itself.

In turn, “CodY-S215A (Bacillus cereus ATCC 14579), N-terminal (His)6-tagged (from UniProt Q819X8 1-259) (natural protein)” gave a stoichiometry N in series [1] of 2.
As for “CodY-S215D (Bacillus cereus ATCC 14579), N-terminal (His)6-tagged (from UniProt Q819X8 1-259) (natural protein)”, in series [2], the stoichiometry N is 2.

B1: CodY (Bacillus cereus ATCC 14579), N-terminal (His)6-tagged (natural protein)
chain: MELLAKTRKLNALLQSAAGKPVNFREMSDTMCEVIEANVFVVSRRGKLLGYAIHQQIENERMKQMLAERQFPEEYTQSLFNITETSSNLDVNSAYTAFPVENRELFGQGLTTIVPIVGGGERLGTLVLARLGQEFLDDDLILAEYSSTVVGMEILREKAEEIEEEARSKAVVQMAISSLSYSELEAIEHIFEELNGTEGLLVASKIADRVGITRSVIVNALRKLESAGVIESRSLGMKGTYIKVLNDKFLQELAKLKTN
notes: CodY, global transcriptional regulator of Bacillus cereus ATCC 14579; codY PCR-amplified from the chromosome with primers SAT31 + SAT32 and cloned in pQE-30; printed monomer Mw 29.8 kDa; also called CodY WT; wild-type CodY; source: E. coli M15 [pREP4], purified (Ni-NTA, desalted on PD10)
Take B1: the “stoichiometry N” value in series [3] was determined as 2.
